First the molecules themselves.
T1: recombinant soluble human IL-6 receptor (SR344) (human, UniProt P08887 20-344, biotinylated (sites not given) where immobilized via streptavidin or used in phage ELISA)
T1 construct: also called soluble IL-6 receptor; membrane-type IL-6 receptor (when biotinylated and immobilized on the chip)
T1 sequence (looked up): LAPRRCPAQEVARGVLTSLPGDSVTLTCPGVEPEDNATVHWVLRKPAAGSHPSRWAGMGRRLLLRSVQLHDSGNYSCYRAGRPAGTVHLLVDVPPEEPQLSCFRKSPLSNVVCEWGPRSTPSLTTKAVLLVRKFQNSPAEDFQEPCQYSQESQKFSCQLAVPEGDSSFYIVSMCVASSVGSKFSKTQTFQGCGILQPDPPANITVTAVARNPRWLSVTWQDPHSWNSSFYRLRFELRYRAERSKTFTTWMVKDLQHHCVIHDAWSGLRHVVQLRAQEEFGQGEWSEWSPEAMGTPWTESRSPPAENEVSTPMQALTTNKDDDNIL

B1: H3pI/L73 (antibody, IgG1, V domains shown)
VH: QVQLQESGPGLVKPSETLSLTCAVSGHSISHDHAHSWVRQPPGEGLEWIGYISYSGITNYNPSLKGRVTISRDTSKNQFSLKLSSVTAADTAAYYCARSLARTTAMDYWGEGTLVTVSS
VL: DIQMTQSPSSLSASVGDSVTITCQASQHISSHLNWYQQKPGKAPELLIYYGSHLHSGVPSRFSGSGSGTDFTFTISSLEAEDAATYYCGQGNRLPYTFGQGTKVEIE
notes: tested as IgG1; also called H3pI/L73-IgG1; H3pl/L73
B2: H170/L82 (antibody, IgG1, V domains shown)
VH: B1 VH with D32H, N59H, S63H, S99V, T103I, Y108H
VL: B1 VL with H28D
notes: expressed and purified as IgG (IgG1); also called H170/L82-IgG1
B3: humanized PM1 antibody (wild type, WT) (antibody, human IgG1, kappa, V domains shown)
VH: QVQLQESGPGLVRPSQTLSLTCTVSGYSITSDHAWSWVRQPPGRGLEWIGYISYSGITTYNPSLKSRVTMLRDTSKNQFSLRLSSVTAADTAVYYCARSLARTTAMDYWGQGSLVTVSS
VL: DIQMTQSPSSLSASVGDRVTITCRASQDISSYLNWYQQKPGKAPKLLIYYTSRLHSGVPSRFSGSGSGTDFTFTISSLQPEDIATYYCQQGNTLPYTFGQGTKVEIKR
notes: IgG1; also called WT-IgG1; wild type humanized anti-IL-6 receptor antibody
B4: Fv4-IgG1 (antibody)
heavy: not shown
light: DIQMTQSPSSLSASVGDSVTITCQASTDISSHLNWYQQKPGKAPELLIYYGSHLLSGVPSRFSGSGSGTDFTFTISSLEAEDAATYYCGQGNRLPYTFGQGTKVEIERTVAAPSVFIFPPSDEQLKSGTASVVCLLNNFYPREAKVQWKVDNALQSGNSQESVTEQDSKDSTYSLSSTLTLSKADYEKHKVYACEVTHQGLSSPVTKSFNRGEC
notes: VH3-IgG1 / VL3-CK

Substitutions are numbered along the chain they refer to.

The target of one assay is T1, recombinant soluble human IL-6 receptor …. Nature of the assay: SPR Biacore T100, antibody on protein A/G chip, SR344 analyte, pH 7.4, 37 C. As to the method: (§1) Kinetic analyses of antigen-antibody reactions at pH 5.8 and pH 7.4 were carried out using a Biacore™ T100 surface plasmon resonance system (GE Healthcare) on the four antibodies: humanized PM1 antibody (WT) and H3pI/L73, CLH5/L73, and H170/L82 produced in Examples 2 and 4 (buffer: 10 mM MES (pH 7.4 or pH 5.8), 150 mM NaCl, and 0.05% TWEEN® 20 (polyoxyethelene sorbitan monolaurate)). Various antibodies were bound onto a sensor chip immobilized with recomb-protein A/G (Pierce) by amine coupling. SR344 adjusted to concentrations of 9.8 to 400 nM was injected to the chip as an analyte. […] All the measurements were carried out at 37° C. Association rate constants kₐ (1/Ms) and dissociation rate constants kd (1/s) were calculated using Biacore T100™ Evaluation Software (GE Healthcare), and dissociation constants KD (M) were calculated on the basis of those values (Table 5). Moreover, the ratio of the affinities at pH 5.8 and pH 7.4 were calculated for each clone to evaluate pH-dependent binding. All the measurements were carried out at 37° C.
On to B1, for which the Kd amounted to 1.4 nM, the koff is 0.00074 s⁻¹ and the kon turned out to be 540000 M⁻¹ s⁻¹.

For B2, the Kd was found to be 1.6 nM, the off-rate constant (koff) came to 0.0011 s⁻¹ and the kon stood at 680000 M⁻¹ s⁻¹.

Regarding B3, the Kd came out at 2.1 nM, the koff was 0.001 s⁻¹ and the kon amounted to 510000 M⁻¹ s⁻¹.

The target is the same in a further assay. Nature of the assay: SPR Biacore T100, antibody on protein A/G chip, SR344 analyte, 37 C, ratio of pH 5.8 to pH 7.4. As to the method:
as §1
Take B1: the “KD (pH 5.8)/KD (pH 7.4)” value was 41.3.

For B2, the “KD (pH 5.8)/KD (pH 7.4)” value came out at 394.

As to B3, the “KD (pH 5.8)/KD (pH 7.4)” value is 2.4.

For a further assay the target is unchanged. The description is as above. This is another data set of the same source. As to the method: Kinetic analysis of antigen-antibody reactions at pH 7.4 and pH 5.8 was carried out using a Biacore T100™ surface plasmon resonance system (GE Healthcare) for the four types of antibodies prepared: WT-IgG1, H54/L28-IgG1, H170/L82-IgG1, and Fv4-IgG1 (buffer: 10 mM MES (pH 7.4 or pH 5.8), 150 mM NaCl, 0.05% Surfactant P20 (polyoxyethelene sorbitan monolaurate)). The antibodies were bound to a sensor chip on which recomb-protein A/G (Pierce) was immobilized by amine coupling, and SR344 adjusted to an appropriate concentration was injected therein as an analyte. The association with and dissociation from SR344 of each type of antibody were observed on a real-time basis. All the measurements were carried out at 37° C. Association rate constants kₐ (1/Ms) and dissociation rate constants kd (1/s) were calculated using Biacore T100™ Evaluation Software (GE Healthcare), and dissociation constants KD (M) were calculated based on those values (Table 17).
For the molecule B4, the “KD (pH 5.8)/KD (pH 7.4)” value was 27.3 and the “kd (pH 5.8)/kd (pH 7.4)” value turned out to be 38.8.

For the molecule B2, the “KD (pH 5.8)/KD (pH 7.4)” value worked out at 61.9 and the “kd (pH 5.8)/kd (pH 7.4)” value came to 11.4.

With B3, the “KD (pH 5.8)/KD (pH 7.4)” value was 1.6 and the “kd (pH 5.8)/kd (pH 7.4)” value stood at 2.9.

A further assay has the same target. The assay is described as follows: SPR Biacore T100, biotinylated SR344 on streptavidin chip (model of membrane-type IL-6 receptor), antibody 0.25 ug/mL as analyte, 37 C. As to the method: (§2) Binding to the membrane-type IL-6 receptor was evaluated by evaluating binding to the IL-6 receptor immobilized on a sensor chip. SR344 was biotinylated in accordance with a method known among persons with ordinary skill in the art, and the biotinylated SR344 was immobilized on the sensor chip via streptavidin using the affinity between streptavidin and biotin. All the measurements were carried out at 37° C. The mobile phase buffer was 10 mM MES (pH 5.8), 150 mM NaCl and 0.05% TWEEN® 20 (polyoxyethelene sorbitan monolaurate).
(§3) The pH-dependently-binding clones were injected under the condition of pH 7.4 to allow them to bind to SR344, and then, the pH-dependent dissociation of each clone at the pH of the mobile phase, pH 5.8, was observed. The results are shown in FIG. 21 (results for Fv1-M71, Fv1-M73, Fv3-M71, and Fv3-M73 are shown in FIG. 21, while results for other clones are shown in FIGS. 17 and 19). Analyses were carried out in the same manner as in Example 10 and the pH dependencies of the dissociation rate constants of all of the eleven types of clones are shown in Table 12.
As for B4, the “kd (pH 5.8)/kd (pH 7.4)” value is 5.56.

In the case of B1, the “kd (pH 5.8)/kd (pH 7.4)” value came to 2.59.

Consider B3, for which the “kd (pH 5.8)/kd (pH 7.4)” value amounted to 1.

For another assay the target is unchanged. Nature of the assay: SPR Biacore T100, biotinylated SR344 on streptavidin chip (model of membrane-type IL-6 receptor), antibody as analyte, bound at pH 7.4, dissociation at pH 5.8, 37 C. How it is done: as §2, §3
For B4, the koff worked out at 0.0026 s⁻¹.

For the molecule B1, the koff stood at 0.00067 s⁻¹.

For B3, the koff was determined as 0.00025 s⁻¹.

A further assay shares this target. Nature of the assay: SPR Biacore T100, biotinylated SR344 on streptavidin chip (model of membrane-type IL-6 receptor), antibody as analyte, bound at pH 7.4, dissociation at pH 7.4, 37 C. As to the method: as §2, §3
For B4, the koff was found to be 0.00047 s⁻¹.

With B1, the koff was 0.00026 s⁻¹.

Take B3: the koff turned out to be 0.00025 s⁻¹.

Values taken from US20180282719A1 (published 2018).
